Experimental data reported in paper PMC9077843.

How the values were obtained:
Western blot, HEK293T = conditions: glycan lost; control: B3GNT5-WT-Flag
[1] = Western blot, MDA-MB231 and BT549, B3GNT5-WT-mcherry; conditions: glycan lost; control: untreated

Protein	expression_or_secretion (Western blot, HEK293T)	expression_or_secretion [1]
B3GNT5 (β1,3-N-acetylglucosaminyltransferase V): 4NQ (protein) parent chain: MRMLVSGRRVKKWQLIIQLFATCFLASLMFFWEPIDNHIVSHMKSYSYRYLINSYDFVNDTLSLKHTSAGPRYQYLINHKEKCQAQDVLLLLFVKTAPENYDRRSGIRRTWGNENYVRSQLNANIKTLFALGTPNPLEGEELQRKLAWEDQRYNDIIQQDFVDSFYNLTLKLLMQFSWANTYCPHAKFLMTADDDIFIHMPNLIEYLQSLEQIGVQDFWIGRVHRGAPPIRDKSSKYYVSYEMYQWPAYPDYTAGAAYVISGDVAAKVYEASQTLNSSLYIDDVFMGLCANKIGIVPQDHVFFSGEGKTPYHPCIYEKMMTSHGHLEDLQDLWKNATDPKVKTISKGFFGQIYCRLMKIILLCKISYVDTYPCRAAFI	decreases	
B3GNT5 (β1,3-N-acetylglucosaminyltransferase V): tunicamycin (TM, 2.5 μg/mL, 24 h) (protein) parent chain: MRMLVSGRRVKKWQLIIQLFATCFLASLMFFWEPIDNHIVSHMKSYSYRYLINSYDFVNDTLSLKHTSAGPRYQYLINHKEKCQAQDVLLLLFVKTAPENYDRRSGIRRTWGNENYVRSQLNANIKTLFALGTPNPLEGEELQRKLAWEDQRYNDIIQQDFVDSFYNLTLKLLMQFSWANTYCPHAKFLMTADDDIFIHMPNLIEYLQSLEQIGVQDFWIGRVHRGAPPIRDKSSKYYVSYEMYQWPAYPDYTAGAAYVISGDVAAKVYEASQTLNSSLYIDDVFMGLCANKIGIVPQDHVFFSGEGKTPYHPCIYEKMMTSHGHLEDLQDLWKNATDPKVKTISKGFFGQIYCRLMKIILLCKISYVDTYPCRAAFI		decreases
